Measurements from US20100278838A1, “EPHA2 MONOCLONAL ANTIBODIES AND METHODS OF USE THEREOF” (MEDIMMUNE, LLC, priority 2002, published 2010).
Entries after “also recorded” stand apart in the source; their conditions may differ.

Tests used:
[1] = test system: malignant MDA-MB-231 tumor cells; test: Inhibition of colony formation in soft agar; type: cell-based; conditions: MDA-MB-231, single dose 5 μg/ml, 37° C.
Method: FIG. 5: EphA2 antibodies inhibit malignant tumor cell growth in soft agar. A single dose of 5 μg/ml of Eph099B-208.261 (black bar), EA2 (white bar) purified EphA2 antibodies or a negative control antibody, 1A7 (gray bar) were incubated with malignant MDA-MB-231 tumor cells for the indicated time at 37° C. in soft agar. Results are reported as colonies per high-powered field (HPF).
(§1) The ability of the antibodies of the invention to inhibit cancer cell formation in soft agar was assayed as described in Zelinski et al. (2001, Cancer Res. 61:2301-6). Briefly, cells were suspended in soft agar for 7 days at 37° C. in the presence of purified antibody or control solution (PBS). Antibodies were administered at the time of suspension in both bottom and top agar solutions. Colony formation was scored microscopically using an Olympus CK-3 inverted phase-contrast microscope outfitted with a 40× objective. Clusters containing at least three cells were scored as a positive.

[2] = test system: A549 lung cancer cells implanted subcutaneously; test: Tumor growth in vivo, A549 implanted subcutaneously; design: species or system athymic mice; conditions: 6mg/kg intraperitoneally twice a week for 3 weeks; versus PBS or 1A7
Method: FIGS. 7A-7D: The EphA2 antibodies, EA2, Eph099B-208.261, and Eph099B-233.152, inhibit tumor cell growth in vivo. MDA-MB-231 breast cancer cells were implanted (A) orthotopically or (B) subcutaneously into athymic mice. (C) A549 lung cancer cells were implanted subcutaneously into athymic mice. After the tumors had grown to an average volume of 100 mm^3, mice were administered 6 mg/kg of the indicated antibody or negative control (PBS or 1A7 antibody) intraperitoneally twice a week for 3 weeks. Tumor growth was assessed and expressed as a ratio of the tumor volume divided by initial tumor volume (100 mm^3). (D) MDA-MB-231 breast cancer cells were implanted subcutaneously into athymic mice. After the tumors had grown to an average volume of 100 mm^3, mice were administered 6 mg/kg of the indicated antibody or negative control intraperitoneally twice a week for 3 weeks. Total tumor volume was determined after sacrifice. Negative control is black, EA2 is white, Eph099B-208.261 is dark grey, and Eph099B-233.152 is light grey.
5×10^6MDA-MB-231 breast cancer cells were implanted orthotopically or subcutaneously and 5×10^6 A549 lung cancer cells were implanted subcutaneously into athymic mice. […] Tumor growth was assessed and expressed either as a ratio of the tumor volume divided by initial tumor volume (100 mm^3) or as total tumor volume. […]

[3] = test system: cancer cell colonies already formed in soft agar; test: Elimination of cancer cell colonies already formed in soft agar; type: cell-based; conditions: antibodies added on third day; data not shown
Method: as §1
The ability of the antibodies of the invention to eliminate cancer cell colonies already formed in soft agar was assayed. Assay methods were similar to those described above except that antibodies were not added to the cancer cells until the third day of growth in soft agar.

[4] = test system: EphA2; test: EphA2 degradation / protein level in MDA-MB-231 cells (western blot); type: cell-based; conditions: MDA-MB-231 monolayers, single dose 5 μg/ml, 37° C.
Method: Monolayers of MDA-MB-231 cells were incubated in the presence of a single dose of 5 μg/ml (A, C) Eph099B-208.261 or (B, D) EA2 for the indicated time at 37° C. Cell lysates were then resolved by SDS-PAGE and subjected to western blot analysis with an EphA2-specific antibody (A, B). The membranes were stripped and re-probed with a β-catenin-specific antibody as a loading control (C, D).
Monolayers of MDA-MB-231 cells were incubated in the presence of a single dose of 5 μg/ml Eph099B-233.152 at 37° C. Cell lysates were then immunoprecipitated with D7 (an EphA2-specific antibody), resolved by SDS-PAGE and subjected to western blot analysis with (A) a phosphotyrosine-specific antibody or (B) an EphA2-specific antibody.
Monolayers of MDA-MB-231 cells were incubated in the presence of EphA2 agonistic antibodies at 37° C. Cell lysates were then resolved by SDS-PAGE and subjected to western blot analysis with an EphA2-specific antibody (D7). […] Some membranes were stripped and re-probed with a β-catenin-specific antibody as a loading control (FIGS. 3C-3D). […] Decreased EphA2 expression is due, in part, to deceased mRNA expression levels in response to EphA2 protein degradation caused by agonistic antibody binding (data not shown).
Western blot analyses and immunoprecipitations were performed as described previously (Zantek et al., 1999, Cell Growth Diff. 10:629-38, which is incorporated by reference in its entirety). Briefly, detergent extracts of cell monolayers were extracted in Tris-buffered saline containing 1% Triton X-100 (Sigma, St. Louis, Mo.). After measuring protein concentrations (BioRad, Hercules, Calif.), 1.5 mg of cell lysate was immunoprecipitated, resolved by SDS-PAGE and transferred to nitrocellulose (PROTRAN™, Schleicher and Schuell, Keene, N.H.). Antibody binding was detected by enhanced chemiluminescence (Pierce, Rockford, Ill.) and autoradiography (Kodak X-OMAT; Rochester, N.Y.).

Sequence of EphA2 (P29317 24-976): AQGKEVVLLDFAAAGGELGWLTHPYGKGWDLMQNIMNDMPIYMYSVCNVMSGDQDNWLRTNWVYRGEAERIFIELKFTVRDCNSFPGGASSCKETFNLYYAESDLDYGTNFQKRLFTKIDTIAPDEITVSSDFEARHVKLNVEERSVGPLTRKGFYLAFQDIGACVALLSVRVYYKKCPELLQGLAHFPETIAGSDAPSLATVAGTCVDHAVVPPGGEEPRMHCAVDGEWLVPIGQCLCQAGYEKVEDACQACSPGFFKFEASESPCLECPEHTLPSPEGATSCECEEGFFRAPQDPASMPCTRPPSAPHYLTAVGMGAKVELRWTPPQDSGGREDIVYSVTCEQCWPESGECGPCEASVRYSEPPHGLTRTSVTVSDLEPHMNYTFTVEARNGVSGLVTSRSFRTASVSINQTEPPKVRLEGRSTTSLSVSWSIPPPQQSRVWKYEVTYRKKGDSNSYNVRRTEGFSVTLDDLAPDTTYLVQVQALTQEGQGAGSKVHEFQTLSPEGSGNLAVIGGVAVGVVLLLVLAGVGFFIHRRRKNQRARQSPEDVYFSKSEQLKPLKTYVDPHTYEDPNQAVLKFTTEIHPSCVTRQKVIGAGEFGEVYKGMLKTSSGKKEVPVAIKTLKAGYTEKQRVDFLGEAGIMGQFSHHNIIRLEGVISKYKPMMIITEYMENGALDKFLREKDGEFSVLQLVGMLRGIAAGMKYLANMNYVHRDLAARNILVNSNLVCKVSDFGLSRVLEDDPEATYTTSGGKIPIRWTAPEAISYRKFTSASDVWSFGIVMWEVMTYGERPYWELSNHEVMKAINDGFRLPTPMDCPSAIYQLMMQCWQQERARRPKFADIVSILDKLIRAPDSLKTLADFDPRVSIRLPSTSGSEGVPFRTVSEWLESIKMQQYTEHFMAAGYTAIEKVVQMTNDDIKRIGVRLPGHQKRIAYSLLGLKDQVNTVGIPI

B1: Eph099B-208.261: EphA2 monoclonal antibody; hybridoma ATCC PTA-4573; VL SEQ ID NO:1, VH SEQ ID NO:5 (antibody, listed as Homo sapiens, V domains shown)
VH: QVQLQQPGAELVKPGASVKLSCKASGYTFTSYWMHWVKQRPGQGLEWIGMIHPNSGSTNYNEKFKSKATLTVDKSSSTAYMRLSSLTSEDSAVYYCARGGNMVGGGYWGQGTTLTVSS
VL: QIVLTQSPALMSASPGEKVTMTCSASSSVSYMYWYQQKPRSSPKPWIYLTTNLASGVPARFSGSGSGTSYSLTISSMEAEDAATYYCQQWSSNPFTFGSGTKLEIR
Colony growth in soft agar [1]: inhibited colony growth in soft agar | Growth of A549 cells implanted subcutaneously [2]: inhibited | Effect on cancer cell colonies already growing in soft agar [3]: can slow or reduce cancer cell colony growth in soft agar | EphA2 protein level [4]: decreased EphA2 protein level

B2: EA2: EphA2 agonistic monoclonal antibody; ATCC deposit no. PTA-4380; co-pending application Ser. No. 10/436,783; VL SEQ ID NO:33, VH SEQ ID NO:37 (antibody, listed as Homo Sapiens, V domains shown)
VH: DVKLVESGGGLVKPGGSLKLSCAASGFTFSSYTMSWVRQTPEKRLEWVATISSGGTYTYYPDSVKGRFTISRDNAKNTLYLQMSSLKSEDTAMYYCTREAIFTYWGQGTLVTVSA
VL: DIKMTQSPSSMYASLGERVTITCKASQDINNYLSWFQQKPGKSPKTLIYRANRLVDGVPSRFSGSGSGQDYSLTISSLEYEDMGIYYCLKYDEFPYTFGGGTKLEIK
Colony growth in soft agar [1]: inhibited colony growth in soft agar | Growth of A549 cells implanted subcutaneously [2]: inhibited | EphA2 protein level [4]: decreased EphA2 protein level

B3: Eph099B-233.152: EphA2 monoclonal antibody; hybridoma ATCC PTA-5194; VL SEQ ID NO:17, VH SEQ ID NO:21 (antibody, listed as Homo sapiens, V domains shown)
VH: EVKLVESGGGLVQPGGSLSLSCAASGFTFTDYSMNWVRQPPGKALEWLGFIRNKANDYTTEYSASVKGRFTISRDNSQSILYLQMNALRAEDSATYYCVRYPRYHAMDSWGQGTSVTVSS
VL: DIVLTQSPATLSVTPGDSVNLSCRASQSISNNLHWYQQKSHESPRLLIKYVFQSISGIPSRFSGSGSGTDFTLSINSVETEDFGMYFCQQSNSWPLTFGAGTKLELK
Effect on cancer cell colonies already growing in soft agar [3]: can slow or reduce cancer cell colony growth in soft agar | EphA2 protein level [4]: decreased EphA2 protein level; also recorded: EphA2 degradation
